Values quoted from earlier work, collected in patent publication US5993783A, “Method and apparatus for pulmonary administration of dry powder α1-antitrypsin” (Inhale Therapeutic Systems, priority 1998, dated 1999).

Conditions: similar sheep model, Smith et al. 1989

Question: With “α1AT: α1-antitrypsin, a protease inhibitor with inhibitory activity toward neutrophil elastase” as the substance, how does the “rate of clearance of α1AT out of the lungs, % of the total rate of α1AT transported out of the lung” value read?
Answer: 16.1±10.4%
